The target of test [1] is T1, human glucose-dependent insulinotropic polypeptide (GIP) receptor (human, UniProt P48546 22-466).
T1 construct: whole, on cells; Assayed as crude membranes of stably transfected CHO cells; also called hGIPR; human GIP receptor
T1 sequence (looked up): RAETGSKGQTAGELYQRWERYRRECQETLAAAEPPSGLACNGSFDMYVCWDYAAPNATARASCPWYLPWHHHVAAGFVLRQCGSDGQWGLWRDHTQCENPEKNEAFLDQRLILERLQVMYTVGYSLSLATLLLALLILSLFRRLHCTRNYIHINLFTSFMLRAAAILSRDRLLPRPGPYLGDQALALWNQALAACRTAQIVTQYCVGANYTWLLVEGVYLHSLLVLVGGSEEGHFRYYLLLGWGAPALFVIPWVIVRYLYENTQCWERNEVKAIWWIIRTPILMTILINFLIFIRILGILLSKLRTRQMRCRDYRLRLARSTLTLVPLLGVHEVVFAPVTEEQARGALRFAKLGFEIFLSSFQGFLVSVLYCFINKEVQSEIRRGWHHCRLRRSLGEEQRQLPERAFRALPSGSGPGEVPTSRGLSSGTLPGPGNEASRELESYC
Description: SPA, displacement of [125I]-GIP from hGIPR membranes, 0.1% bacitracin. For orientation: In a radioligand displacement assay an active substance lowers the binding of a labelled ligand.

Another test addresses T2, human GLP-1 receptor (human, UniProt P43220 24-463).
T2 construct: whole, on cells; Assayed as crude membranes of stably transfected HEK293 cells; also called hGLP1R; hGLP-1R
Description: SPA, displacement of [125I]-GLP-1 from hGLP-1R membranes, 0.1% bacitracin. How it is done:
The binding buffer contains 25 mM HEPES, pH 7.4, 2.5 mM CaCl₂, 1 mM MgCl₂, 0.1% (w/v) bacitracin, 0.003% (w/v) TWEEN®-20, and Roche Complete™ Protease Inhibitors without EDTA.
Data are analyzed using four-parameter (curve maximum, curve minimum, […], Hill slope) nonlinear regression routines (Genedata Screener, version 12.0.4, Genedata AG, Basal, Switzerland). […] Values for Kᵢ are reported as the geometric mean, with error expressed as the standard error of the mean (SEM) and n is equal to the number of independent replicates (determined in assays performed on different days). Geometric Means are calculated as follows: […]

Starred links: 1 amine or outer side, 2 acyl side, 3 side chain; linkers in the order of their positions; H or OH if unused. Non-standard residues stand in square brackets, D forms with d. Groups on a side chain read outwards from the residue. No end group written: not given here. *: point of attachment. C20 diacid = O=C(O)CCCCCCCCCCCCCCCCCCC(=O)*; C18 diacid = O=C(O)CCCCCCCCCCCCCCCCC(=O)*; γGlu = O=C(O)[C@H](CCC(=O)[*:2])N[*:1]; 4Pal = N[C@@H](Cc1ccncc1)C(=O)O; αMeL = CC(C)C[C@](C)(N)C(=O)O; AEEA = NCCOCCOCC(=O)O; Aib = CC(C)(N)C(=O)O

The Ki is a measure of affinity in units of concentration, obtained from inhibition or displacement. The low end stands for tighter binding, the high end for weaker binding.

B1: Example 10 (peptide)
peptide: Y[dA]EGTFISDYSILLDKK([AEEA-AEEA-γGlu-C20 diacid])HQQDFVNWLLAGGPSSGAPPPS-NH2
modifications: N-terminus assumed
SMILES: CC[C@H](C)[C@H](NC(=O)[C@H](CO)NC(=O)[C@H](Cc1ccc(O)cc1)NC(=O)[C@H](CC(=O)O)NC(=O)[C@H](CO)NC(=O)[C@@H](NC(=O)[C@H](Cc1ccccc1)NC(=O)[C@@H](NC(=O)CNC(=O)[C@H](CCC(=O)O)NC(=O)[C@@H](C)NC(=O)[C@@H](N)Cc1ccc(O)cc1)[C@@H](C)O)[C@@H](C)CC)C(=O)N[C@@H](CC(C)C)C(=O)N[C@@H](CC(C)C)C(=O)N[C@@H](CC(=O)O)C(=O)N[C@@H](CCCCN)C(=O)N[C@@H](CCCCNC(=O)COCCOCCNC(=O)COCCOCCNC(=O)CC[C@H](NC(=O)CCCCCCCCCCCCCCCCCCC(=O)O)C(=O)O)C(=O)N[C@@H](Cc1c[nH]cn1)C(=O)N[C@@H](CCC(N)=O)C(=O)N[C@@H](CCC(N)=O)C(=O)N[C@@H](CC(=O)O)C(=O)N[C@@H](Cc1ccccc1)C(=O)N[C@H](C(=O)N[C@@H](CC(N)=O)C(=O)N[C@@H](Cc1c[nH]c2ccccc12)C(=O)N[C@@H](CC(C)C)C(=O)N[C@@H](CC(C)C)C(=O)N[C@@H](C)C(=O)NCC(=O)NCC(=O)N1CCC[C@H]1C(=O)N[C@@H](CO)C(=O)N[C@@H](CO)C(=O)NCC(=O)N[C@@H](C)C(=O)N1CCC[C@H]1C(=O)N1CCC[C@H]1C(=O)N1CCC[C@H]1C(=O)N[C@@H](CO)C(N)=O)C(C)C
For B1, the results for the Ki (in test [1]; with human GLP-1 receptor) were 0.159 nM and 60.7 nM, respectively.

B2: Example 22 (peptide)
peptide: Y[Aib]EGTFISDYSILLDKK([AEEA-AEEA-γGlu-C18 diacid])HQ[Aib]DFVE[4Pal]LLAGGPSSGAPPPS-NH2
modifications: N-terminus assumed
SMILES: CC[C@H](C)[C@H](NC(=O)[C@H](CO)NC(=O)[C@H](Cc1ccc(O)cc1)NC(=O)[C@H](CC(=O)O)NC(=O)[C@H](CO)NC(=O)[C@@H](NC(=O)[C@H](Cc1ccccc1)NC(=O)[C@@H](NC(=O)CNC(=O)[C@H](CCC(=O)O)NC(=O)C(C)(C)NC(=O)[C@@H](N)Cc1ccc(O)cc1)[C@@H](C)O)[C@@H](C)CC)C(=O)N[C@@H](CC(C)C)C(=O)N[C@@H](CC(C)C)C(=O)N[C@@H](CC(=O)O)C(=O)N[C@@H](CCCCN)C(=O)N[C@@H](CCCCNC(=O)COCCOCCNC(=O)COCCOCCNC(=O)CC[C@H](NC(=O)CCCCCCCCCCCCCCCCC(=O)O)C(=O)O)C(=O)N[C@@H](Cc1c[nH]cn1)C(=O)N[C@@H](CCC(N)=O)C(=O)NC(C)(C)C(=O)N[C@@H](CC(=O)O)C(=O)N[C@@H](Cc1ccccc1)C(=O)N[C@H](C(=O)N[C@@H](CCC(=O)O)C(=O)N[C@@H](Cc1ccncc1)C(=O)N[C@@H](CC(C)C)C(=O)N[C@@H](CC(C)C)C(=O)N[C@@H](C)C(=O)NCC(=O)NCC(=O)N1CCC[C@H]1C(=O)N[C@@H](CO)C(=O)N[C@@H](CO)C(=O)NCC(=O)N[C@@H](C)C(=O)N1CCC[C@H]1C(=O)N1CCC[C@H]1C(=O)N1CCC[C@H]1C(=O)N[C@@H](CO)C(N)=O)C(C)C
In the case of B2, the Ki in test [1] was 0.219 nM; with human GLP-1 receptor it was 388 nM.

B3: Example 83 (peptide)
peptide: Y[Aib]EGTFISDYSI[αMeL]LDEK([AEEA-AEEA-γGlu-C20 diacid])HQ[Aib]DFVE[4Pal]LLATGPSSGAPPPS-NH2
modifications: N-terminus assumed
SMILES: CC[C@H](C)[C@H](NC(=O)[C@H](Cc1ccccc1)NC(=O)[C@@H](NC(=O)CNC(=O)[C@H](CCC(=O)O)NC(=O)C(C)(C)NC(=O)[C@@H](N)Cc1ccc(O)cc1)[C@@H](C)O)C(=O)N[C@@H](CO)C(=O)N[C@@H](CC(=O)O)C(=O)N[C@@H](Cc1ccc(O)cc1)C(=O)N[C@@H](CO)C(=O)N[C@H](C(=O)N[C@@](C)(CC(C)C)C(=O)N[C@@H](CC(C)C)C(=O)N[C@@H](CC(=O)O)C(=O)N[C@@H](CCC(=O)O)C(=O)N[C@@H](CCCCNC(=O)COCCOCCNC(=O)COCCOCCNC(=O)CC[C@H](NC(=O)CCCCCCCCCCCCCCCCCCC(=O)O)C(=O)O)C(=O)N[C@@H](Cc1c[nH]cn1)C(=O)N[C@@H](CCC(N)=O)C(=O)NC(C)(C)C(=O)N[C@@H](CC(=O)O)C(=O)N[C@@H](Cc1ccccc1)C(=O)N[C@H](C(=O)N[C@@H](CCC(=O)O)C(=O)N[C@@H](Cc1ccncc1)C(=O)N[C@@H](CC(C)C)C(=O)N[C@@H](CC(C)C)C(=O)N[C@@H](C)C(=O)N[C@H](C(=O)NCC(=O)N1CCC[C@H]1C(=O)N[C@@H](CO)C(=O)N[C@@H](CO)C(=O)NCC(=O)N[C@@H](C)C(=O)N1CCC[C@H]1C(=O)N1CCC[C@H]1C(=O)N1CCC[C@H]1C(=O)N[C@@H](CO)C(N)=O)[C@@H](C)O)C(C)C)[C@@H](C)CC
On to B3, for which the Ki in test [1] was 0.116 nM; with human GLP-1 receptor it was 452 nM.

B4: Example 84 (peptide)
peptide: Y[Aib]EGTFISDYSI[αMeL]LDEK([AEEA-AEEA-γGlu-C20 diacid])HQ[Aib]DFVE[4Pal]LLAQGPSSGAPPPS-NH2
modifications: N-terminus assumed
SMILES: CC[C@H](C)[C@H](NC(=O)[C@H](Cc1ccccc1)NC(=O)[C@@H](NC(=O)CNC(=O)[C@H](CCC(=O)O)NC(=O)C(C)(C)NC(=O)[C@@H](N)Cc1ccc(O)cc1)[C@@H](C)O)C(=O)N[C@@H](CO)C(=O)N[C@@H](CC(=O)O)C(=O)N[C@@H](Cc1ccc(O)cc1)C(=O)N[C@@H](CO)C(=O)N[C@H](C(=O)N[C@@](C)(CC(C)C)C(=O)N[C@@H](CC(C)C)C(=O)N[C@@H](CC(=O)O)C(=O)N[C@@H](CCC(=O)O)C(=O)N[C@@H](CCCCNC(=O)COCCOCCNC(=O)COCCOCCNC(=O)CC[C@H](NC(=O)CCCCCCCCCCCCCCCCCCC(=O)O)C(=O)O)C(=O)N[C@@H](Cc1c[nH]cn1)C(=O)N[C@@H](CCC(N)=O)C(=O)NC(C)(C)C(=O)N[C@@H](CC(=O)O)C(=O)N[C@@H](Cc1ccccc1)C(=O)N[C@H](C(=O)N[C@@H](CCC(=O)O)C(=O)N[C@@H](Cc1ccncc1)C(=O)N[C@@H](CC(C)C)C(=O)N[C@@H](CC(C)C)C(=O)N[C@@H](C)C(=O)N[C@@H](CCC(N)=O)C(=O)NCC(=O)N1CCC[C@H]1C(=O)N[C@@H](CO)C(=O)N[C@@H](CO)C(=O)NCC(=O)N[C@@H](C)C(=O)N1CCC[C@H]1C(=O)N1CCC[C@H]1C(=O)N1CCC[C@H]1C(=O)N[C@@H](CO)C(N)=O)C(C)C)[C@@H](C)CC
Consider B4, for which the values for the inhibition constant Ki (in test [1]; with human GLP-1 receptor) were 0.0584 nM and 325 nM, respectively.

These data come from US20210032299A1 (Eli Lilly, published 2021).
